These results are taken from the supplement of paper PMC12042874.

The data set is described as follows: amyloid nucleation score (Sup35N fusion, yeast selection) (log enrichment); library NNK3; higher = more nucleation; inactive = no reads after selection. An outline of the steps: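 Random libraries were run with three technical output replicates. In each, psi-negative yeast expressing Sup35N fused to peptides of 20 random codons were induced 24 hours with 100 μM copper sulfate and grown 7 days at 30°C on medium lacking adenine and uracil, and input and output plasmid inserts were Illumina-sequenced. The nucleation score is the DiMSum log enrichment of output over input reads, centred on the mode score of non-aggregating sequences, and sequences under 100 input reads were excluded.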

± gives the uncertainty stated by the source.

Consider DRELSFLPGYYLYARVRHKS, for which the amyloid nucleation score result is “inactive”.

For the substance SWFPP, the amyloid nucleation score result was “inactive”.

As to DMKNWPKDYQ, the amyloid nucleation score entry is “inactive”.

Turning to AWSGFE, the amyloid nucleation score was determined as 0.01 ± 1.2.

As to SSQVET, the amyloid nucleation score entry was “inactive”.

On to YAFKVCS, for which the amyloid nucleation score result was “inactive”.

HLVADWQCHSDGFKSWLGNW: the amyloid nucleation score result is “inactive”.

For VHSCEMSSPPTILKVKLVYL, the amyloid nucleation score entry was “inactive”.

Take VFNGFVLKVEQVSIGVC: the amyloid nucleation score result was “inactive”.

Consider KLKFMPRLSHKWDRDQLRVH, for which the amyloid nucleation score result was “inactive”.

In turn, YSALNSYSWYVTPFYILYWF displayed an amyloid nucleation score of 2.56 ± 0.084.

Regarding SCVGVRVLCSAVV, the amyloid nucleation score result is “inactive”.

On to NNSASNPILFGRYVTASREY, for which the amyloid nucleation score result is “inactive”.

For FLLFFILPSVRDLASHKSRG, the amyloid nucleation score turned out to be 0.099 ± 0.19.

For the substance WSVSTQFPCFMSGSIGYNMS, the amyloid nucleation score result is “inactive”.

Take FWFSTELVDDGAGQT: the amyloid nucleation score result is “inactive”.

For GSRIGGVL, the amyloid nucleation score entry is “inactive”.

With CWDEIHIMKAHIRSYGGSVS, the amyloid nucleation score result was “inactive”.

As for SVFRSMSTSILVFSPVHYCE, the amyloid nucleation score result was “inactive”.

As to RWYAVLYHLV, the amyloid nucleation score result was “inactive”.

Regarding VTRHEFVLLLETVPISYWPH, the amyloid nucleation score entry was “inactive”.

As to LHVDS, the amyloid nucleation score result is “inactive”.

Take TSGQSVVSSRTHCVIRCRRR: the amyloid nucleation score entry was “inactive”.

For the substance SSVTCLLSSLRCIPRGVVFM, the amyloid nucleation score result is “inactive”.

In the case of IFVKDFLII, the amyloid nucleation score entry was “inactive”.

Regarding SISCCGIILIKNQASMPWAS, the amyloid nucleation score was 2.96 ± 0.079.

As to AFTRQIIWRDGGERPPWMRV, the amyloid nucleation score result is “inactive”.

Turning to NHLGM, the amyloid nucleation score result is “inactive”.

For the substance ILLRPPGWSRQWSVRWGNYP, the amyloid nucleation score result was “inactive”.

For the substance MGQRLLLVSANAWD, the amyloid nucleation score result is “inactive”.

Take AHDRIFWNGPYNRISYAAFR: the amyloid nucleation score entry is “inactive”.

Turning to GNNPLVVKNLNRKCL, the amyloid nucleation score was -0.357 ± 0.51.

As for LIEDVYLWLCYHRVGYLSAS, the amyloid nucleation score result is “inactive”.

As to FFHFSNVCTWVPDYSETSPS, the amyloid nucleation score entry was “inactive”.

Consider VSFHRRKLNHCNCRML, for which the amyloid nucleation score result was “inactive”.

As for HWHRLTSCGSRLGTGVHVVL, the amyloid nucleation score entry was “inactive”.

Consider SCLWGKRLMFWCE, for which the amyloid nucleation score is -0.528 ± 0.77.

For GRLALSTRQHLV, the amyloid nucleation score result was “inactive”.

CFRCS: the amyloid nucleation score entry is “inactive”.

Take NSKSVSWMFMPLQAFLCLIG: the amyloid nucleation score result is “inactive”.

With IVSWKVRSVSLKLLLSCAPD, the amyloid nucleation score result is “inactive”.

Regarding LCMFPLIWFILLFRFFKLWG, the amyloid nucleation score entry was “inactive”.

Regarding SRAAPRFRSIP, the amyloid nucleation score result is “inactive”.

Turning to RTRCAPLDMVEL, the amyloid nucleation score result was “inactive”.

For GFMLWTHKKLARPEATAV, the amyloid nucleation score result was “inactive”.

As to YAAEYYVVQVIG, the amyloid nucleation score entry was “inactive”.

In turn, CRLSGEYFIDTDPEVFLALM displayed an amyloid nucleation score of 0.397 ± 0.17.

Regarding KTDIPGNHFLTSARLCAG, the amyloid nucleation score entry is “inactive”.

Turning to YMLMGMVLRDRDRT, the amyloid nucleation score was 1.69 ± 0.088.

With CRYSSYVPVGLYKKWGICWM, the amyloid nucleation score result is “inactive”.

As for RAWVLHCGNGYWYPLGQ, the amyloid nucleation score result was “inactive”.

Take FPYNGALSFCIWYRVASRVY: the amyloid nucleation score result was “inactive”.

With WVTYWASRVFE, the amyloid nucleation score result was “inactive”.

Take CVSGASKVNWGSCY: the amyloid nucleation score result was “inactive”.

For the substance QLYVTPYLRDVWYDQASSYE, the amyloid nucleation score result is “inactive”.

Take VGAFLKLNRNLMTFSMARNY: the amyloid nucleation score entry was “inactive”.

For the substance GGLEVMSLITT, the amyloid nucleation score result is “inactive”.

On to TRFLATECITSDEVVYWVTM, for which the amyloid nucleation score entry was “inactive”.

On to QLMPKRAVKRDYRDSSWSGV, for which the amyloid nucleation score entry was “inactive”.

In the case of TSFGYNLGLRRCSYRMTAEW, the amyloid nucleation score is 1.44 ± 0.13.

Consider TPLFHWKNQVSRSFLVWNDL, for which the amyloid nucleation score result was “inactive”.

With WVYDSTIRHHH, the amyloid nucleation score entry was “inactive”.

Take SSLITFAPIPSLYWDCFSRF: the amyloid nucleation score entry was “inactive”.

Turning to SIRTWRVPRDCSAYFNGLSW, the amyloid nucleation score result was “inactive”.

In turn, FLRWFWRD had an amyloid nucleation score of 0.785 ± 0.18.

Consider HIVMVLRSLAYVSSSTHGRR, for which the amyloid nucleation score result is “inactive”.

For CEEPFETIS, the amyloid nucleation score stood at 0.949 ± 0.25.

As to LSINTQTS, the amyloid nucleation score entry was “inactive”.

In the case of FMCLFMNHYLKFGTSFPGRG, the amyloid nucleation score was determined as 0.974 ± 0.14.

As to SVTLRLVFRCP, the amyloid nucleation score came out at 1.05 ± 0.15.

On to LHALFVLSMGQA, for which the amyloid nucleation score entry is “inactive”.

Regarding TSYKYDSNR, the amyloid nucleation score result is “inactive”.

Consider SKHYN, for which the amyloid nucleation score entry was “inactive”.

GVRVS: the amyloid nucleation score entry is “inactive”.

For FWTVHLVT, the amyloid nucleation score result is “inactive”.

Regarding TNLLRTGNASSWMFKRGVEC, the amyloid nucleation score result was “inactive”.

In the case of ILFEFTTPNLSYIFCFFTIH, the amyloid nucleation score entry was “inactive”.

In the case of WVHRIAS, the amyloid nucleation score entry is “inactive”.

Regarding FLGFDRVFYGRRISPSFVRT, the amyloid nucleation score entry was “inactive”.

Take PKAGALQQFMMRHSSHFQLS: the amyloid nucleation score entry is “inactive”.

Consider EVFVLNYNWNVCHWLFVADV, for which the amyloid nucleation score amounted to 1.83 ± 0.083.

Turning to IQYIMTNLGPDYNRFEYM, the amyloid nucleation score result was “inactive”.

As for LVDHLFDMITMHDGPCQLHQ, the amyloid nucleation score result is “inactive”.

For the substance APWYVNWGMYNCEWGRGS, the amyloid nucleation score entry is “inactive”.

SCLSNIVFFFPCQCRSMIFS: the amyloid nucleation score is 1.99 ± 0.063.

For LVYNATYCSSMHHSGS, the amyloid nucleation score entry is “inactive”.

As to TWWSEGIYELKYGLFWLGVV, the amyloid nucleation score entry was “inactive”.

With FVFMTDGGVLNVLAWCISEA, the amyloid nucleation score entry was “inactive”.

Take RAKVISSWSLPGSSVKSYPA: the amyloid nucleation score entry is “inactive”.

For the substance RTVIGLPASMLLSCDHISFV, the amyloid nucleation score result is “inactive”.

As to CSGYARTLS, the amyloid nucleation score result was “inactive”.

Regarding SYFWILRAWS, the amyloid nucleation score result was “inactive”.

As for AQEYRMQHRLGGL, the amyloid nucleation score entry was “inactive”.

As to MMNVWLAFAPGML, the amyloid nucleation score is 0.9 ± 0.14.

On to SYLRQDDVEMAVIWTGHMSV, for which the amyloid nucleation score entry is “inactive”.

SWRRWSPCLIEVWHMFSLVT: the amyloid nucleation score result was “inactive”.

Take HLRDMQRSQNLVG: the amyloid nucleation score result is “inactive”.

With NYIDGFFFVHWAGTLMHKDC, the amyloid nucleation score entry is “inactive”.

On to LIILWRQ, for which the amyloid nucleation score was 1.27 ± 0.079.

For AINDMRPVKSRGGVVELYML, the amyloid nucleation score result was “inactive”.

Take RLWLYR: the amyloid nucleation score entry was “inactive”.

The substance FNFVYV gave an amyloid nucleation score of 0.062 ± 0.88.

As to INPMGITDSVCSTAASG, the amyloid nucleation score entry is “inactive”.

Take HNKDDK: the amyloid nucleation score result is “inactive”.

SRNILRLKLIRLCSRKGIWW: the amyloid nucleation score entry is “inactive”.

As to VLLVF, the amyloid nucleation score entry was “inactive”.

As to VSFYIVKSLEEAGVSR, the amyloid nucleation score was determined as 1.36 ± 0.15.

On to DRYCLWVRCLVDAFMRPVVG, for which the amyloid nucleation score entry is “inactive”.

Turning to TVSYSQPVWSMDFIVGYLGV, the amyloid nucleation score entry was “inactive”.

As for FTLKRLPGYSHRSLEWLPPY, the amyloid nucleation score result was “inactive”.

VVIFFRIQRVTCVWNVLL: the amyloid nucleation score result was “inactive”.

For the substance SHYSSWVSRDRWSNTEFGMV, the amyloid nucleation score result was “inactive”.

As to EAGSTLWCGWKRYASCGRAE, the amyloid nucleation score entry is “inactive”.

As for YAAIPQIVINVLVGGTNASC, the amyloid nucleation score amounted to 2.1 ± 0.069.

Turning to KMCIDFEPELYNLFLLAFHQ, the amyloid nucleation score entry was “inactive”.

VSCESECLLLMIKKYFGSDS: the amyloid nucleation score stood at 0.12 ± 0.26.

The substance VIRDQQIIVKCCNLVSICGI had an amyloid nucleation score of 1.32 ± 0.17.

As for VDNSERLSLHPSVHMGDMGF, the amyloid nucleation score result is “inactive”.

FHMFMTYTWYPVI: the amyloid nucleation score entry is “inactive”.

DIFCLVVTYAERLLYLKTRT displayed an amyloid nucleation score of -0.09 ± 0.75.

FGSYFSLKVFYNYF: the amyloid nucleation score was 2.38 ± 0.055.

In the case of MMGIGVACYVKCGFFVYNWG, the amyloid nucleation score entry was “inactive”.

For KLAKHH, the amyloid nucleation score result was “inactive”.

Substance LKKVCDECRFSESPLVPEVA had an amyloid nucleation score of 1.06 ± 0.13.

In the case of YCFNLFRSARRGDGCAMIGC, the amyloid nucleation score result is “inactive”.

As for IVDCLFK, the amyloid nucleation score result was “inactive”.

Turning to ANSTAAVKSLGRV, the amyloid nucleation score result is “inactive”.

TVHYSLIRWTSGNCGLGYW returned an amyloid nucleation score of 0.841 ± 0.17.

As for WCMFMMSNWRVRPADLFCIS, the amyloid nucleation score entry is “inactive”.

As for DLVTSTGYSGVNAVSDIEDF, the amyloid nucleation score entry is “inactive”.

For the substance MCGQE, the amyloid nucleation score result is “inactive”.

Consider MYSHLNTCTTAKPQVFCSKL, for which the amyloid nucleation score entry is “inactive”.

On to GRLNVLRRRPVGRTKRCSKV, for which the amyloid nucleation score entry is “inactive”.
